# Assay results as given in PMC6864063.
# Target: His-SUMO-tagged SH3 domain of c-Src (UniProt P12931)
# Test: pull-down; His-SUMO-c-Src-SH3 as bait on Ni2+ beads, cleaved ChoKα constructs as probes; equimolar (1:1, 25 µM); 200 mM KCl, 30 mM imidazole pH 8.5, 25 mM Tris pH 8.5, 10 mM MgCl2; three washes; SDS-PAGE, Coomassie; band intensities by ImageJ
# Choline kinase alpha Δ49, wild type, sequence (P35790 50-457, stated change not applied): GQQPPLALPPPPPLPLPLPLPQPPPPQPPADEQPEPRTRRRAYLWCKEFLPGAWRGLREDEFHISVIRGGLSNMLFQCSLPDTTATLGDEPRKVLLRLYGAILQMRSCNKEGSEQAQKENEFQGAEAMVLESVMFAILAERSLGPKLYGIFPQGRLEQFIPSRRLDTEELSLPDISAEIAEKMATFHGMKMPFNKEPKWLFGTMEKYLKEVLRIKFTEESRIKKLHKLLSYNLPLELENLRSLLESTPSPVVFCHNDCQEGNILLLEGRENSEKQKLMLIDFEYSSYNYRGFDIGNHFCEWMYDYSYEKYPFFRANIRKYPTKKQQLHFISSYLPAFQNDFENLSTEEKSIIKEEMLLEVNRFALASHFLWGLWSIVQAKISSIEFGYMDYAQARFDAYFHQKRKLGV
# Choline kinase alpha Δ49 P(59,60)A, sequence (P35790 other isoform, or with tags, fused parts or gaps mutant): as the sequence (P35790 50-457, stated change not applied) above, with P10A, P11A counted along it
# Choline kinase alpha Δ49 P(61,62)A, sequence (P35790 other isoform, or with tags, fused parts or gaps mutant): as the sequence (P35790 50-457, stated change not applied) above, with P12A, P13A counted along it
# Choline kinase alpha Δ49 P(72,73)A, sequence (P35790 other isoform, or with tags, fused parts or gaps mutant): as the sequence (P35790 50-457, stated change not applied) above, with P23A, P24A counted along it
row,Substance,ratio of the ChoKα band intensity to the His-SUMO-cSrcSH3 band intensity
1,"Choline kinase alpha Δ49 P(59,60)A (from UniProt P35790 50-457) (domain or fragment)",0.7
2,"Choline kinase alpha Δ49 P(61,62)A (from UniProt P35790 50-457) (domain or fragment)",0.2
3,"Choline kinase alpha Δ49 P(72,73)A (from UniProt P35790 50-457) (domain or fragment)",0.88
4,"Choline kinase alpha Δ49, wild type (from UniProt P35790 50-457) (domain or fragment)",0.69
